Reference: article PMC7948726

Biological target: 14-3-3β (UniProt P31946)
Test: anti-FLAG co-IP, anti-HA blot
Details: reference: FLAG-DYRK1A wild type; sites S529

DYRK1A (from UniProt Q63470) FLAG-DYRK1A-S529A
binding against the reference: weaker
